# Assay results taken from a protein production outcome set (Wang et al. 2014).
# Assay: label from the status in PepcDB records
row,Sequence,protein production
1,KQFPGYPEFVLVEIETQRGCPKAMGIGGCSFCTEPVRYKVVENRPQEYVAQEVETFYNMGIRHFRIGRQSCIFSYKARPNGRVPIPKPEEVEKLFKAVRLAAPNVKTLHVDNANPAVIANYPEESRRIAKAIIEYGTPGNVVAFGLETADPKVARINNLNATPEETYEAVKIINEVGGRRGYNGLPWLLPGINIIFGLPGETKRTYELTYEFLKKILDDGLMVRRINIRQVVVFPGTPLWNMRDKVKTEKHKALIEHYRHKIRHEIDLPMLKRVVPVG,failed
2,KSEAGAGKKVQVEFVSANPTGPLHIGHGRGAAIGDTICRLLAAIGWDVTREFYYNDAGQQIANLALSVQARCLGVEPGGPLWPTDGYQGEYIKDVARSYLNRETVDAGDQHVTAAGDPHDVEAIRRFAVAYLRREQDQDLRAFDVGFDVYFLESSLYAEGRVDDVVQRIIAKGHAYEQDGALWLRTTEFGDDKDRVMRKSDGSYTYFVPDVAYHLNKWERGFIRVVNEQGADHHSTITRVRAGLQALDAGIPKGWPEYVLHQMVTVMRGGEEVKISKRAGSYVTLRDLVDEVGRDATRFFFLMRKPDSQLVFDIDLAKQQTLENPVYYVQYAHARICSIFENAADKGVVPPT,failed
3,KSIRLAKEKESQADYISTYVEWQYIDKNITQCFDKMTNMKLEVAWKAKKKDTVVQIHNQDFTVDLSTNTATAPQGQTFTVQRLVKA,not failed
4,KSLTLVLHRDSGSLGFNIIGGRPSVDNHDGSSSEGIFVSKIVDSGPAAKEGGLQIHDRIIEVNGRDLSRATHDQAVEAFKTAKEPIVVQVLRRT,not failed
5,KTITGFYPLNQGHDALLARTSLIESAQKSLDLQYYIYRGDETSQLITWRLYEAAKRGVRIRLLLDDMQKRNDNVMAALNAHPNIEIRLFNPHQYRSARIFALTSDFERLNRRMHNKSLIADSVSAIVGGRNIGNEYFSFESEVEFGDFDLLLYGEAVQQTADQFDLYWNSVHAVPMEWISPQSQSVSDAAIQKQVTKLNLQEKFSSGRYDFTALDMYQ,failed
6,KTMKMRKFTIADASLERSPGQEADISVGNLVDERHGGPITIGYGRYAPGQSLTETMAVDDVMIVLEGRLSVSTDGETVTAGPGEIVYMPKGETVTIRSHEEGALTAYVTYPHWRPAHA,not failed
7,KTNFKIVLKEDSELLQEVVVTGYGGKVSRSKLTNSISTVNPQMLDKGIYTNPSQALSGSVPGLKVSLTSGNPTSSPKIILRGGTNFDGSGGPLVVVDGQLRDNFDDINPQDIASMDVLKDAGATAIYGARASNGVILITTKSGKAGH,failed
8,KVDKKTYKNLIVELQQRMREIQFALYERKIPLVLVFEGMDAAGKGGNIKRIREKLDPTGYEVNGISAPTDVELKHHYLWRFAKKMPKSGHIEIFDRSWYGRVLVERVEGFASQNEWQRASDEINQFEKMWTDEGTIILKFFLCLDKDEQLKRFKDRENNPDKQWKITEEDWRNREKWDEYLEASHDMIESTNTSYAPWYIVPADHKKTSRIEVLKTIIRKCEEVLWGVKTY,failed
9,LAAWHLSSADYIADTLRLQGMTARGQVLDFGGGIGTHALSAAALPQVDHVWFVDLNPHNQAFVEQRAAALGLSDKLSVHRDLESTGEVRFDTVVCLDVLEHLPDPSAQLQAFHQRMASDATALLNWYFFKGHDGEYPFHFDDPQ,failed
10,LADVEARARIAIDAAGMGTWDLRPQEGLLLWDDRCKTLFGVPTSTEMSLEVFYAGIYPDDLPLVREAVEHAMRPESDGHYRVEFRIAQPNGLEPRWLLSSGQSQFVDDQCVRFSGVLQDIHAQRQATQALRQLNEMLGER,not failed
11,LDTLRRYHRQTLQDLPMGVCSLAKDQEVLMWNRAIEELTGVGAQKVVGSRLSALPEPWKGLLERFIDAPDEHLHKQRLVYDGHTRWLNLHKAAIEEPLAPGNSGLVLLVEDLTETQLLEDKLVHSERLASIGRLAAGVAHEIGNPITGI,not failed
12,LEEALGILDTQRVEIAKRRHLNAVLRHIPAGVAAVDNQGVVQSLNPALAQLLDLPVSAALGRPLQQLCPELDLQQALQEGTGEENRVMRLGSHAVVSNLLPILENGERTGLVLTCQDITVVQRADQRIR,failed
13,LEMKGKRMSVTAVMRELEKEENLYRRSGGGITLSGGEPLAQPEFARELLKACKAKGWHTAIETSGFTTKAVIDEVFPYVDLALTDIKAIDPEIHERNTGVNNRVILENLLRISFLTKVVVRIPVIPGVNDNSQEIHNIAEFARLMQNVDTIHLLPYHSFGENKYNLLGRQYPMGDTKSIEESQMAELKAMVESLGFNCHIGG,failed
14,LETERNRYKWLFENAVHGIFQASLQAGMRAANPALARMLGYQDPQEVLFSLADLAGNLFVGGAGELAAIGEQLQNQRSLLGYETQLRRKDGSSIDVLMNLLLKPDQDGLVEGFVADITERKLAQQHLEQLNDQLEQR,failed
15,LETSSYLNVLVNSQWKSRWCSVRDNHLHFYQDRNRSKVAQQPLSLVGCEVVPDPSPDHLYSFRILHKGEELAKLEAKSSEEMGHWLGLLLSESG,not failed
16,LGRITQHIAIKQDITEQVHRFNQLKISEERYRNLMNAVADGIFIHNLQGAFLEVNEAACLSLNYSREELINSYVWDIEVGFSQESLNQLWENVQKGPINTEGMHRRKDGTTFPVDVRLAVFNATGEKLVLAIVRDI,failed
17,LHARLLQQESIINALPFAVFIRTAAGELAVYNSHFAEAHQDKLNDLLNHNNEPANWPMTSPLDREIDKYCRQVLTHRKPQMVDLSLEINGELRDIFLWIIPLDNAERSLFGGWLDISQRKTVERQLEAARVEAESANRTKSTFLATISHELRTPMYAIMGLL,failed
18,LHRIVDKMHDTSTGIRPSPNMEQGSTYKKTFLGSSLVDWLISSNFAASRLEAVTLASMLMEENFLRPVGVRSMGAIRSGDLAEQFLDDSTALYTFAESYKKKVSSKE,not failed
19,LICLLSSLLSVQAAPGPHPHWSVGFHEMSFLDPLDRQPMRAIAFYPSTGIEHGSQLEGYQIAASRDAKIAIGRFPMLMLSHGNTGTPLALHDLATSLARKGFVVVAVIHPGDNSKDHSRLGTLSNLYGRPIQISEAITATLGDPMLSPFVNADQVGVIGYSAGGETALILSGATPDLDRLRRYCQERPNDRDACNTQGELIVDRDDLQPVADPRVHALMLLAPLSLKFGRQTLAGVHVPVLLYSGDGDQLVALDKNAAALARKLPVAPDFKLLAGAGHFVFMAPCSAQQMAAMPALCTDADGVDREDIHRNLILEAGNFFA,failed

row,Sequence,protein production
1,LIHKYKNFVRAKSRSYFLVGADREDIVQEGMIGLFKAIRDYKEDKLSSFKAFAELCITRQIITAIKTATRQKHIPLNSYVSLDKPIYDEESDRTLLDVISEAKVTDPEEMIISQEEYTDIESKISELLSDLERKVLSLYLDGRSYQEISEQLNRHVKSIDNALQRVKRKLERYMEMRESTTLNS,not failed
2,LKASGVQAQMAKQQEQDPTNLYISNLPLSMDEQELENMLKPFGQVISTRILRDSSGTSRGVGFARMESTEKCEAVIGHFNGKFIKTPPGVSAPTEPLLCKF,not failed
3,LKDIETACKLLNITADPMDWSPSNVQKWLLWTEHQYRLPPMGKAFQELAGKELCAMSEEQFRQRSPLGGDVLHAHLDIWKSAA,not failed
4,LKRDFIILGNGPRLQNSTYQCKHCDSKLQSTAELTSHLNIHNEEFQKRAKRQERRKQLLSKQKYADGAFADFKQE,not failed
5,LLALWVSAGELMAASKGAAGFTKATQEVSSYQTPVSNLMKAIAAVIVLVGAFNVYFKMQNGDQDVKKTIMLTIGGCIAFIALSEALPLFF,failed
6,LLARALYDNCPDCSDELAFSRGDILTILEQHVPESEGWWKCLLHGRQGLAPANRLQIL,not failed
7,LLGLGVGPGDPELITLKALRLLRAAPVVGYFVAKGKKGNAFGIIEAHLDQAQVRLPLVYPVTTEKLEPPLCYETIISDFYDTAAEQLAAHLDAGRDVAVICEGDPFFYGSYMYLHDRLATRYESEVVPGVCSMLGGAAVLGAPLVYRNQSLSVLSGVLPEEELRRRLADADAAVVMKLGRNFDKVRRVLVELGLERRALYVERATMANQRIVPLERVEPMASPYFSLIVVPGDKWQGGAGGE,failed
8,LLSLALAALMEDVHAHSGAVYLLAPDEPVLEMAVMAGLPRAFAAPWERVGLSAPLPVAEAVRERRLVWVNGEEQMAGRYPRVAVVLPYSFALAALPLACADTVYGALFVTWPDSHPPELSSRERDQLGVACDRLATRLAHA,failed
9,LNDALLLMEANIEDPLTTDEIAGLVGVSRRQLERLFRQYLGAMPSKYYLNLRLLKARTQLQRTSKSVVQVSLACGFSSAAHFSNAYRERFGVTPREDRRA,not failed
10,LNLPYDEHADAWTQVKKALAAGKRTHKPTLLVFGANWCTDCRALDKSLRNQKNTALIAKHFEVVKIDVGNFDRNLELSQAYGDPIQDGIPAVVVVNSDGKVRYTTKGGELANARKMSDQGIYDFFAKITETRGV,failed
11,LNTNQLFAYLNRGDIAEFKFSPLFTTLFFPNVATFSTQNIMLDTLDIEEVTMSAFCSPMVGSQVQRDKGYETSTIKPGYMKPKHEIDPTKTIMRMAGEDPAQLNDPTYRRMRLITGNMRRQINAIKARVEWLAVNAVTTGKNIIEGEGIERYEIDWKIPEKNIIEQADGKKWSEQDKETHYPIYDIELYADQAGCPANVMIMGAEVWRTLRSFKKFRELYDLSRGSESAAELACKNLGEVVSFKGYLGDLALIVYSGKYTDSDGTEKYFLEPDLLVLGNTNNKGLVAYGAIMDQEAVRTGATQNMFYPKNWIEDGDPAIEYVQTHSAPQPVPADIRKFVTVKIA,failed
12,LPRQIAATVDLNSHGAGEHLDEQVIHCAHDLALQCNAELHLLHVCDAAKTHIADFGAGTVTMPGFDSSVRTAQRAAFNRLGDHHQIPLERRHFLEGAAIRAIAQFVGHNRVDVIVMGSHRHDAMQTFLGGTTAHVLEHPLCNVLAIKAVR,failed
13,LPVILWFLAHGLDVVFIDYPRDPATGVQYYCDSIAAAKSLLDAVLASRQLGLSPEAPLGLWGFSQGGGATGWAAQLQDYAPDVRPKAAVVGAPPVDLFRVLDTVDGGLLTGVIAYAIAGLAVNSSEMFEEIMSVLNERGVSDVLKNITSCAGGSLLASGYSSSRGWTHQGTPLADILDDLPLVVAEFGKQKLGRVAPEIPVLLWGSKNDDVIPIDPIRELRDSWADKGTPLTWHESQAPRVPGRTGLNHFGPYFRNLEKYSGWLIDHL,failed
14,LQQFLDALASSPEKIEFETTMAVIEDNYDFTPAAFTNGNTQNDANENNGSCKIFAFGLLNALDKEATLACFGRFYREDVLLHPENNDHQNIRNFMVTGWEGIQFETSALTAK,not failed
15,LRASEIMNRTLDLQIIMDDLLNLLLKEFKLDLAVIRLVDEKGVLRVRSYSGKGIAGIAGKDWEPEIETYIGEAFLSNRLQFVNDTQYMTKPLTRELMQKEGIKSFAHIPISRKGEPPFGILSVFSRTIVGLFNEPFLNLLESLAGQLAQAVKIVTEMEAKEREREEKERILLENA,not failed
16,LRGTHSQLRCVLNAATQVAIIATDLRGVISTFNAGAEQMLGYSSSEAVGHLTLESLHLPEELESWAQSLTQRYGKAIPVSQAMLVEEGMAGGHEAREWTLVRRDGSHLQVNMLATPVLDDQGLWIGHLAICIDITERKRVHEA,failed
17,LRTIVELMENNLEETLSLDQLAAYSGRSRRQIDRLFQAQLGTSPRRYYMELRITKSRRLLQYSDLSVMEVAVACGFVSVSHFSKCYAAYFGYPPSREQRLGE,failed
18,LSASEERFQLAVSGASAGLWDWNPKTGAMYLSPHFKKIMGYEDHELPDEITGHRESIHPDDRARVLAALKAHLEHRDTYDVEYRVRTRSGDFRWIQSRGQALWNSAGEPYRMVGWIMDVTDRKRDEDALRVSREELRRL,not failed
